T1: human EphB1 (Homo sapiens, UniProt P54762)
T1 construct: a protein of the extracellular region of each human Eph receptor fused with the SEAP protein and the His tag; made in house; host or cells: Expi293F cells (culture supernatant)
T1 sequence (P54762 18-540 limits assumed): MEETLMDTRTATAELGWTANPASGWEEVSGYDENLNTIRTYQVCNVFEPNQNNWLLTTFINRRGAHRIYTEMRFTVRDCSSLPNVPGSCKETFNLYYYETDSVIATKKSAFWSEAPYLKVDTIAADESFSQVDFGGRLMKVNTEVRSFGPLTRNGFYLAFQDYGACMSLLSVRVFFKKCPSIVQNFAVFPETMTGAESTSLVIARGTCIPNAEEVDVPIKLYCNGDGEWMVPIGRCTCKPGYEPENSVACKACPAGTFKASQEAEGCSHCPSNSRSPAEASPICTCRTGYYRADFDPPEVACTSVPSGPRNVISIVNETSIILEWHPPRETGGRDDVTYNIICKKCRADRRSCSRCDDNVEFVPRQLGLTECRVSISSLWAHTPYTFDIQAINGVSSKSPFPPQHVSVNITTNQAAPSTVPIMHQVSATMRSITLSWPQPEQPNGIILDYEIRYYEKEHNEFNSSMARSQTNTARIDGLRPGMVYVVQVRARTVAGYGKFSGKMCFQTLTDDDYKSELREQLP

T2: human EphA8 (Homo sapiens, UniProt P29322)
T2 construct: a protein of the extracellular region of each human Eph receptor fused with the SEAP protein and the His tag; made in house; host or cells: Expi293F cells (culture supernatant)
T2 sequence (P29322 28-542 limits assumed): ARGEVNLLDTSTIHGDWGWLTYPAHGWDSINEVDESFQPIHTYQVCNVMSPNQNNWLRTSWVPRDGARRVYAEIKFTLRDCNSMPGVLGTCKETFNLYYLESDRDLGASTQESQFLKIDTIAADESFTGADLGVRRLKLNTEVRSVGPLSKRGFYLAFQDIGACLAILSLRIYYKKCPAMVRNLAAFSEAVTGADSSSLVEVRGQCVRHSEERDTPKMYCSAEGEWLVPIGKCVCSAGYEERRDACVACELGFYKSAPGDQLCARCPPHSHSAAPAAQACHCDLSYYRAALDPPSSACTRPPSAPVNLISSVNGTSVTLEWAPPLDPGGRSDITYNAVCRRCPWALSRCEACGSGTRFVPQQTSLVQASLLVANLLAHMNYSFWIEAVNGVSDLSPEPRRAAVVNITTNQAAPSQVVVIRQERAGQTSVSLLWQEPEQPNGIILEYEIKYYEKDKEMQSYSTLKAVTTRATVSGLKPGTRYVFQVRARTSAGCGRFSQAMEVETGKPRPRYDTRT

B1: 69 (antibody, V domains shown)
VH: QIQLVQSGSELKKPGASVKVSCKASGYTFTDYSMHWVRQAPGQGLKWMGWINTETGEPTYADDFKGRFVFSLDTSVSTAYLQISSLKAEDTAVYYCARIPLYYYGSRYWYFDVWGQGTTVTVSS
VL: DIQMTQSPSSLSASVGDRVTITCRASENIYRNLAWYQQKPGKAPKLLVYAATNLADGVPSRFSGSGSGTDYTLTISSLQPEDFATYYCQHFWGTPWTFGQGTKVEIK
modifications: synthetic humanized antibody heavy chain variable region sequence; synthetic humanized antibody light chain variable region sequence
B2: 83 (antibody, V domains shown)
VL: DIQMTQSPSSLSASVGDRVTITCRASENIYRNLAWYQQKPGKAPKLLLYAATNLADGVPSRFSGSGSGTDYTLTISSLQSEDFATYYCQHFWGTPWTFGQGTKVEIK
VH: QIQLVQSGSELKKPGASVKVSCKASGYTFTDYSMHWVRQAPGQGLKWMGWINTETGEPTYAQGFTGRFVFSLDTSVSTAYLQISSLKAEDTAVYYCARIPLYYYGSRYWYFDVWGQGTTVTVSS
modifications: constant regions without entry; synthetic humanized antibody light chain variable region sequence; synthetic humanized antibody heavy chain variable region sequence
B3: 81 (antibody, V domains shown)
VL: DIQMTQSPSSLSASVGDRVTITCRASENIYRNLAWYQQKPGKAPKLLLYAATNLADGVPSRFSGSGSGTDYTLTISSLQSEDFATYYCQHFWGTPWTFGQGTKVEIK
VH: QVQLVQSGSELKKPGASVKVSCKASGYTFTDYSMHWVRQAPGQGLEWMGWINTETGEPTYAQGFTGRFVFSLDTSVSTAYLQISSLKAEDTAVYYCARIPLYYYGSRYWYFDVWGQGTTVTVSS
modifications: constant regions without entry; synthetic humanized antibody light chain variable region sequence; synthetic humanized antibody heavy chain variable region sequence
B4: 82 (antibody, V domains shown)
VL: DIQMTQSPSSLSASVGDRVTITCRASENIYRNLAWYQQKPGKAPKLLLYAATNLADGVPSRFSGSGSGTDYTLTISSLQSEDFATYYCQHFWGTPWTFGQGTKVEIK
VH: QVQLVQSGSELKKPGASVKVSCKASGYTFTDYSMHWVRQAPGQGLKWMGWINTETGEPTYAQGFTGRFVFSLDTSVSTAYLQISSLKAEDTAVYYCARIPLYYYGSRYWYFDVWGQGTTVTVSS
modifications: constant regions without entry; synthetic humanized antibody light chain variable region sequence; synthetic humanized antibody heavy chain variable region sequence
B5: 85 (antibody, V domains shown)
VL: DIQMTQSPSSLSASVGDRVTITCRASENIYRNLAWYQQKPGKAPKLLLYAATNLADGVPSRFSGSGSGTDYTLTISSLQSEDFATYYCQHFWGTPWTFGQGTKVEIK
VH: QVQLVQSGSELKKPGASVKVSCKASGYTFTDYSMHWVRQAPGQGLKWMGWINTETGEPTYADDFKGRFVFSLDTSVSTAYLQISSLKAEDTAVYYCARIPLYYYGSRYWYFDVWGQGTTVTVSS
modifications: constant regions without entry; synthetic humanized antibody light chain variable region sequence; synthetic humanized antibody heavy chain variable region sequence
B6: 86 (antibody, V domains shown)
VL: DIQMTQSPSSLSASVGDRVTITCRASENIYRNLAWYQQKPGKAPKLLLYAATNLADGVPSRFSGSGSGTDYTLTISSLQSEDFATYYCQHFWGTPWTFGQGTKVEIK
VH: QIQLVQSGSELKKPGASVKVSCKASGYTFTDYSMHWVRQAPGQGLKWMGWINTETGEPTYADDFKGRFVFSLDTSVSTAYLQISSLKAEDTAVYYCARIPLYYYGSRYWYFDVWGQGTTVTVSS
modifications: constant regions without entry; synthetic humanized antibody light chain variable region sequence; synthetic humanized antibody heavy chain variable region sequence
B7: 84 (antibody, V domains shown)
VL: DIQMTQSPSSLSASVGDRVTITCRASENIYRNLAWYQQKPGKAPKLLLYAATNLADGVPSRFSGSGSGTDYTLTISSLQSEDFATYYCQHFWGTPWTFGQGTKVEIK
VH: QVQLVQSGSELKKPGASVKVSCKASGYTFTDYSMHWVRQAPGQGLEWMGWINTETGEPTYADDFKGRFVFSLDTSVSTAYLQISSLKAEDTAVYYCARIPLYYYGSRYWYFDVWGQGTTVTVSS
modifications: constant regions without entry; synthetic humanized antibody light chain variable region sequence; synthetic humanized antibody heavy chain variable region sequence

What was measured:
Experiment in all cases: Selectivity ELISA of humanized antibodies for human Eph receptor
Format in all cases: binding
SEAP-His = SEAP-His (Homo sapiens, UniProt P05187); details: coated protein 1 nM
SEAP-His, sequence (P05187 23-511 limits assumed): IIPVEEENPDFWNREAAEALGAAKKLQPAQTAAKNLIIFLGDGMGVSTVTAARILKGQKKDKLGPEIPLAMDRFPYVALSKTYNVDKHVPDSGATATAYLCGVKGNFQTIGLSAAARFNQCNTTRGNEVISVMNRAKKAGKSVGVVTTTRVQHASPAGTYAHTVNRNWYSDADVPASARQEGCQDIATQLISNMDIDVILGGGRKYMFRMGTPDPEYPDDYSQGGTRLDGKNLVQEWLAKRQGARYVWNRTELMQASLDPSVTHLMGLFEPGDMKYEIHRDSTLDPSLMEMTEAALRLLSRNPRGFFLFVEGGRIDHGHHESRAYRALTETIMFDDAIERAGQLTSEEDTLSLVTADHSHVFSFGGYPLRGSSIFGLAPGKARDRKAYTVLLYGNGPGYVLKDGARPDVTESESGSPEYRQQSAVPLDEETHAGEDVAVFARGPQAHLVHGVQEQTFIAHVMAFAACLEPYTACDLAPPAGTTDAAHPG
In short: (§1)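 Capture ELISA: anti-6-His coat, 1% BlockAce block, Eph ECD-SEAP-His (1 nM final, Expi293F supernatant) 1 h RT, humanized Ab 1 h RT, HRP anti-IgG 1 h RT, TMB, H2SO4 stop, A450.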

human EphB1 = target: T1, human EphB1; details: coated protein 1 nM
In short: as §1

human EphA5 = target: T3, human EphA5 (Homo sapiens, UniProt P54756); details: coated protein 1 nM
T3 construct: a protein of the extracellular region of each human Eph receptor fused with the SEAP protein and the His tag; made in house; host or cells: Expi293F cells (culture supernatant)
T3 sequence (P54756 25-573 limits assumed): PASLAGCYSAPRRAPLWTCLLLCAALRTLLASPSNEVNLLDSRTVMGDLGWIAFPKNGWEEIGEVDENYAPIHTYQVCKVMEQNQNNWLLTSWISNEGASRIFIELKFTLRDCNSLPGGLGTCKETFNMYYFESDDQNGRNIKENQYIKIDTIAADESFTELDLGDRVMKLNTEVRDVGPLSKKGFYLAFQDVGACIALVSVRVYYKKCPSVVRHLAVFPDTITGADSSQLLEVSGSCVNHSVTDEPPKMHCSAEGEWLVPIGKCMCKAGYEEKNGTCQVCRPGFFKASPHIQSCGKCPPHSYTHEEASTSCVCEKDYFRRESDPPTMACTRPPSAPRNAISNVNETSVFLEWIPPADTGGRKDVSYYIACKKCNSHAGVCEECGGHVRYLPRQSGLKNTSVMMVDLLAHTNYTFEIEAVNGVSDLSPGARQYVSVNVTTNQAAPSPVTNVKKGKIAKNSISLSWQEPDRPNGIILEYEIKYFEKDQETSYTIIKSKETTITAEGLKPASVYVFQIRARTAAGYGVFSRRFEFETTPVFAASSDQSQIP
In short: as §1

human EphA2 = target: T4, human EphA2 (Homo sapiens, UniProt P29317); details: coated protein 1 nM
T4 construct: a protein of the extracellular region of each human Eph receptor fused with the SEAP protein and the His tag; made in house; host or cells: Expi293F cells (culture supernatant)
T4 sequence (P29317 24-537 limits assumed): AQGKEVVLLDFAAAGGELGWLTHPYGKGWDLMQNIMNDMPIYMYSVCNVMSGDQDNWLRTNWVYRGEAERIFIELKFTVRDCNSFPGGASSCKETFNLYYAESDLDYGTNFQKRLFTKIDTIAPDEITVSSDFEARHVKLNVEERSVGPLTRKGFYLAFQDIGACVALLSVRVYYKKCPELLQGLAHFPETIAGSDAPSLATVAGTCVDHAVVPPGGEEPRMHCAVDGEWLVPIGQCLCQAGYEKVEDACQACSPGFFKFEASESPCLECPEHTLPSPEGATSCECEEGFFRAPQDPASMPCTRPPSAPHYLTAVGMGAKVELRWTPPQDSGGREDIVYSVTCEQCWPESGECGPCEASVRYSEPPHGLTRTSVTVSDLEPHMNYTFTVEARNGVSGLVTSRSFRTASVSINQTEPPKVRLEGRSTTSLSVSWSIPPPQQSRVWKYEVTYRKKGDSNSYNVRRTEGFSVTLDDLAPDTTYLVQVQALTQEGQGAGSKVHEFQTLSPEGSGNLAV
In short: as §1

human EphA4 = target: T5, human EphA4 (Homo sapiens, UniProt P54764); details: coated protein 1 nM; reference set to 100%
T5 construct: made in house; not restated for the human SEAP-His protein
T5 sequence (P54764 20-547): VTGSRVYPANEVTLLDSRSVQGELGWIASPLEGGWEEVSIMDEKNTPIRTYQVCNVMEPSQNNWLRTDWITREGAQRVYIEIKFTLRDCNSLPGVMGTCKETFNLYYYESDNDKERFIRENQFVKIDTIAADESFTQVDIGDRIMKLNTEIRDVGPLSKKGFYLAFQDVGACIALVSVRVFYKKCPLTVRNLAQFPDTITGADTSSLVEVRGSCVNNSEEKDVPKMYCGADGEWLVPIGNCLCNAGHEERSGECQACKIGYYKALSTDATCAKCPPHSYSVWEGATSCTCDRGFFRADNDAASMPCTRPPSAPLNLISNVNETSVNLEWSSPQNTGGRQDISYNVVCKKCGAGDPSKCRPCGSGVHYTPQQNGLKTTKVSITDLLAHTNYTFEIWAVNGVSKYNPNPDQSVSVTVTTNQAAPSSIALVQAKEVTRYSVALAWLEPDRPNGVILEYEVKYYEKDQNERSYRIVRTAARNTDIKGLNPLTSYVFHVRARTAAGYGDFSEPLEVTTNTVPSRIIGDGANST
In short: as §1

human EphA8 = target: T2, human EphA8; details: coated protein 1 nM
In short: as §1

Molecule	SEAP-His: absorbance at 450 nm, percentage with respect to hEphA4-SEAP-His as 100% (SEAP-His)	hEphB1-SEAP-: absorbance at 450 nm, percentage with respect to hEphA4-SEAP-His as 100% (human EphB1)	hEphA5-SEAP-: absorbance at 450 nm, percentage with respect to hEphA4-SEAP-His as 100% (human EphA5)	hEphA2-SEAP-: absorbance at 450 nm, percentage with respect to hEphA4-SEAP-His as 100% (human EphA2)	hEphA4-SEAP-: absorbance at 450 nm, percentage with respect to hEphA4-SEAP-His as 100% (human EphA4)	hEphA8-SEAP-: absorbance at 450 nm, percentage with respect to hEphA4-SEAP-His as 100% (human EphA8)
B1	6.1%	5.6%	5.6%	5.5%	100%	5.5%
B2	6.5%	5.6%	5.8%	5.8%	100%	6.0%
B3	5.0%	4.9%	4.9%	4.8%	100%	5.2%
B4	5.9%	5.4%	6.5%	5.4%	100%	5.8%
B5	5.3%	5.0%	5.0%	5.1%	100%	5.5%
B6	6.1%	5.7%	5.7%	5.7%	100%	5.7%
B7	5.1%	5.2%	5.0%	4.9%	100%	5.3%

Reference: patent US10428140B2, “Anti-EphA4 antibody” (EISAI R&D MANAGEMENT CO., LTD., priority 2015, dated 2019)
